To fix the notation:
T1: EsCas13d, nuclease-dead (Eubacterium siraeum, UniProt B0MS50, R295A;H300A;R849A;H854A)
T1 sequence: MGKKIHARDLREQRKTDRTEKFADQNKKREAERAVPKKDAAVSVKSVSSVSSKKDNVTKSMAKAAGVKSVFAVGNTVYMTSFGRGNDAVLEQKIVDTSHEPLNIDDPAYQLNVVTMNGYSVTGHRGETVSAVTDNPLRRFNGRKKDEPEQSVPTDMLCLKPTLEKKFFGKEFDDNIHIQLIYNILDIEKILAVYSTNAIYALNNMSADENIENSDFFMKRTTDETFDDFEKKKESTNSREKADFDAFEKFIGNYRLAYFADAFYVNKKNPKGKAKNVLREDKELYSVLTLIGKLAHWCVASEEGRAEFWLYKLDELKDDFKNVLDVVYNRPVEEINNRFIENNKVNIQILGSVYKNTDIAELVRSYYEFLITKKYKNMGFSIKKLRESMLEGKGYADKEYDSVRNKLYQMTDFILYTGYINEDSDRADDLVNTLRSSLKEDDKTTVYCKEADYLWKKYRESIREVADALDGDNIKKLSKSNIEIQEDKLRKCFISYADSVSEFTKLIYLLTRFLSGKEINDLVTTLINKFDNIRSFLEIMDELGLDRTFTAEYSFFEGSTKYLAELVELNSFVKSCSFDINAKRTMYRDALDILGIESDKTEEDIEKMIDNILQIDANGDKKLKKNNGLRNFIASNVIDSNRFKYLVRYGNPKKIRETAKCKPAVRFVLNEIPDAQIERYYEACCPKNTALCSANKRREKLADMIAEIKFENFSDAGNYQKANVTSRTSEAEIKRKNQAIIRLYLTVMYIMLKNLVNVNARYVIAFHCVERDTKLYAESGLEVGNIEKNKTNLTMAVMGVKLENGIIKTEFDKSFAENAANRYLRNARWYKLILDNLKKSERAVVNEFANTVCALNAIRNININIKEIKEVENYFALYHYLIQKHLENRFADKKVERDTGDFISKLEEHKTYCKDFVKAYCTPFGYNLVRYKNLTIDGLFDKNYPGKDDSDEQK

B1: target 1 insA 3' of 19,insC 3' of 10 (mixed)
RNA 1: CACCCGUGCAAAAAUGCAGGGGUCUAAAACUGAGCGGAUAACCUCUCUAUGG
RNA 2: GGGAAUGGAUCCACAUCUACGAAUUCGUACCAUAAGAGAGGUUCAUCCGCUCACCGAGAUCGGAAGAGCACACGU
B2: target 1 insU 3' of 15,insG 3' of 10 (mixed)
RNA 1: B1 RNA 1
RNA 2: B1 RNA 2 with A35G, G36A, A37G, G38U, C44G
B3: target 1 U3A,C4A (mixed)
RNA 1: B1 RNA 1
RNA 2: GGGAAUGGAUCCACAUCUACGAAUUCGUACCAUAGAGAGGUUAUCCGAACACCGAGAUCGGAAGAGCACACGU
B4: target 1 C7A,A16G (mixed)
RNA 1: B1 RNA 1
RNA 2: B3 RNA 2 with A36G, C45A, A48C, A49U
B5: target 2 MT 5'PFS AAU 3'PFS UCC (mixed)
RNA 1: CACCCGUGCAAAAUUGCAGGGGUCUAAAACCUUCUCCAAAUUGUUUCAUCCU
RNA 2: GGGAAUGGAUCCACAUCUACGAAUUCAAUAGGAUGAAACAAUUUGGAGAAGUCCAGAUCGGAAGAGCACACGU
B6: target 2 MT 5'PFS CAC 3'PFS AUC (mixed)
RNA 1: B5 RNA 1
RNA 2: B5 RNA 2 with A27C, U29C, U52A, C53U
B7: target 2 MT 5'PFS UCA 3'PFS AAC (mixed)
RNA 1: B5 RNA 1
RNA 2: B5 RNA 2 with A27U, A28C, U29A, U52A, C53A
B8: target 2 MT 5'PFS UGG 3'PFS CCG (mixed)
RNA 1: B5 RNA 1
RNA 2: B5 RNA 2 with A27U, A28G, U29G, U52C, C54G
B9: target 2 MT 5'PFS AAA 3'PFS CCU (mixed)
RNA 1: B5 RNA 1
RNA 2: B5 RNA 2 with U29A, U52C, C54U
B10: target 2 MT 5'PFS AAA 3'PFS CCA (mixed)
RNA 1: B5 RNA 1
RNA 2: B5 RNA 2 with U29A, U52C, C54A
B11: target 2 MT 5'PFS AAG 3'PFS AAU (mixed)
RNA 1: B5 RNA 1
RNA 2: B5 RNA 2 with U29G, U52A, C53A, C54U
B12: target 2 MT 5'PFS GUG 3'PFS CUG (mixed)
RNA 1: B5 RNA 1
RNA 2: B5 RNA 2 with A27G, A28U, U29G, U52C, C53U, C54G
B13: target 2 MT 5'PFS GUG 3'PFS CUC (mixed)
RNA 1: B5 RNA 1
RNA 2: B5 RNA 2 with A27G, A28U, U29G, U52C, C53U
B14: target 2 MT 5'PFS GAC 3'PFS AGG (mixed)
RNA 1: B5 RNA 1
RNA 2: B5 RNA 2 with A27G, U29C, U52A, C53G, C54G
B15: target 2 MT 5'PFS CAC 3'PFS AUG (mixed)
RNA 1: B5 RNA 1
RNA 2: B5 RNA 2 with A27C, U29C, U52A, C53U, C54G
B16: target 2 MT 5'PFS AAU 3'PFS UCU (mixed)
RNA 1: B5 RNA 1
RNA 2: B5 RNA 2 with C54U
B17: target 2 MT 5'PFS GUG 3'PFS CUA (mixed)
RNA 1: B5 RNA 1
RNA 2: B5 RNA 2 with A27G, A28U, U29G, U52C, C53U, C54A
B18: target 2 MT 5'PFS GAC 3'PFS AGU (mixed)
RNA 1: B5 RNA 1
RNA 2: B5 RNA 2 with A27G, U29C, U52A, C53G, C54U
B19: target 2 MT 5'PFS UAC 3'PFS AUG (mixed)
RNA 1: B5 RNA 1
RNA 2: B5 RNA 2 with A27U, U29C, U52A, C53U, C54G
B20: target 2 MT 5'PFS UAC 3'PFS AUU (mixed)
RNA 1: B5 RNA 1
RNA 2: B5 RNA 2 with A27U, U29C, U52A, C53U, C54U
B21: target 2 MT 5'PFS UCA 3'PFS AAG (mixed)
RNA 1: B5 RNA 1
RNA 2: B5 RNA 2 with A27U, A28C, U29A, U52A, C53A, C54G
B22: target 2 MT 5'PFS UCA 3'PFS AAA (mixed)
RNA 1: B5 RNA 1
RNA 2: B5 RNA 2 with A27U, A28C, U29A, U52A, C53A, C54A
B23: target 2 MT 5'PFS GAC 3'PFS AGC (mixed)
RNA 1: B5 RNA 1
RNA 2: B5 RNA 2 with A27G, U29C, U52A, C53G
B24: target 2 MT 5'PFS AAA 3'PFS CCG (mixed)
RNA 1: B5 RNA 1
RNA 2: B5 RNA 2 with U29A, U52C, C54G
B25: target 2 MT 5'PFS GAC 3'PFS AGA (mixed)
RNA 1: B5 RNA 1
RNA 2: B5 RNA 2 with A27G, U29C, U52A, C53G, C54A
B26: target 2 MT 5'PFS CCU 3'PFS CCA (mixed)
RNA 1: B5 RNA 1
RNA 2: B5 RNA 2 with A27C, A28C, U52C, C54A
B27: target 2 MT 5'PFS GGU 3'PFS AAA (mixed)
RNA 1: B5 RNA 1
RNA 2: B5 RNA 2 with A27G, A28G, U52A, C53A, C54A
B28: target 2 MT 5'PFS GGU 3'PFS AAU (mixed)
RNA 1: B5 RNA 1
RNA 2: B5 RNA 2 with A27G, A28G, U52A, C53A, C54U
B29: target 2 MT 5'PFS GUG 3'PFS CUU (mixed)
RNA 1: B5 RNA 1
RNA 2: B5 RNA 2 with A27G, A28U, U29G, U52C, C53U, C54U
B30: target 2 MT 5'PFS GGU 3'PFS AAG (mixed)
RNA 1: B5 RNA 1
RNA 2: B5 RNA 2 with A27G, A28G, U52A, C53A, C54G

Positions count from the first letter of the chain named. In names and notes the source's numbering stands.

The data set deals with T1, EsCas13d, nuclease-dead. The experiment in a line: crRNA (strand 1, pre-loaded); Mg2+; 40 mM Tris-HCl pH 7.5, 150 mM NaCl, 6 mM MgCl2, 1 mM DTT, 0.1% Tween-20, 0.2 mg/ml BSA; 25 C; 10 min per concentration, then washed. The conditions noted are these: tags: His6-TwinStrep-SUMO cleaved; N-terminal SNAP kept (SNAP-Surface 488); label: 3' end held by stalled T7 RNA polymerase.
By Kd is commonly meant the free concentration of one partner at which half of the binding sites on the other are occupied at equilibrium, for simple one-to-one binding. A high value points to a looser complex. For B1, the Kd was 40 ± 4 nM.
In the case of B2, the Kd came to 21.6 ± 2.9 nM.
B3 gave a Kd of 8.5 ± 0.9 nM.
For B4, the Kd was found to be 30 ± 1.9 nM.
For B5 the value was 11.8 ± 1.9 nM.
As to B6, binding was put at a Kd of 2 ± 0.4 nM.
For B7, the Kd was found to be 7.5 ± 1.1 nM.
B8: the Kd stood at 8.6 ± 0.8 nM.
In the case of B9, the Kd turned out to be 34 ± 13 nM.
Molecule B10 gave an equilibrium dissociation constant (Kd) of 10 ± 2.5 nM.
With B11, the Kd was found to be 3.1 ± 0.5 nM.
With B12, binding was characterised by a dissociation constant (Kd) of 10.1 ± 0.7 nM.
For B13 the value was 21.4 ± 2 nM; for B14, 9.5 ± 0.8 nM; for B15, 1.4 ± 0.21 nM.
Regarding B16, the Kd stood at 10.7 ± 2 nM.
B17: the Kd is 8.5 ± 0.7 nM.
Take B18: the Kd is around 43 nM.
In turn, B19 returned a dissociation constant (Kd) of 6.8 ± 1.4 nM.
B20 returned a Kd of 9.3 ± 2.9 nM.
For the molecule B21, binding was put at a Kd of 6.7 ± 1 nM.
Molecule B22 returned a Kd of 4.2 ± 0.9 nM.
B23 showed a Kd of 9.3 ± 1.3 nM.
The molecule B24 yielded a Kd of 5.7 ± 0.9 nM.
For B25, binding was put at a Kd of 16 ± 6 nM.
Under B26 stands 1.72 ± 0.2 nM; under B27, 7.1 ± 1 nM.
In turn, B28 had a Kd of 12.4 ± 2.2 nM.
B29: the affinity, expressed as Kd, was 12.8 ± 1 nM.
With B30, the dissociation constant (Kd) is 12.7 ± 1.2 nM.

Source of the values: article PMC10786891, “Massively parallel profiling of RNA-targeting CRISPR-Cas13d”.
